Where “and” joins values, the source holds several entries; their conditions need not be identical. Identical values can stand only once.
B1: Plasmodium falciparum Hsp110 (PfHsp70-z, PF3D7_0708800) (natural protein)
chain: MSVLGIDIGNDNSVVATINKGAINVVRNDISERLTPTLVGFTEKERLIGDSALSKLKSNYKNTCRNIKNLIGKIGTDVKDDIEIHEAYGDLIPCEYNYLGYEVEYKNEKVVFSAVRVLSALLSHLIKMAEKYIGKECKEIVLSYPPTFTNCQKECLLAATKIINANVLRIISDNTAVALDYGMYRMKEFKEDNGSLLVFVNIGYANTCVCVARFFSNKCEILCDIADSNLGGRNLDNELIKYITNIFVNNYKMNPLYKNNTPELCPMGTGRLNKFLVTSTASDQQNGINNKVRIKLQEVAIKTKKVLSANNEASIHVECLYEDLDCQGSINRETFEELCSNFFLTKLKHLLDTALCISKVNIQDIHSIEVLGGSTRVPFIQNFLQQYFQKPLSKTLIADESIARGCVLSAAMVSKHYKVKEYECVEKVTHPINVEWHNINDASKSNVEKLYTRDSLKKKVKKIVIPEKGHIKLTAYYENTPDLPSNCIKELGSCIVKINEKNDKIVESHVMTTFSNYDTFTFLGAQTVTKSVIKSKDEKKKADDKTEDKGEKKDAKDQEQNDDKDQTNDNNMNEKDTNDKKEKNNETNSPNKTELKKGEEGKVQTCYTTIPIETLLAQGSYSSKDIFNFSEQEINMQHSDILEGERLKHLNELETIIYESRSRLNGIYKNFVMDDERDRILLSLDDYENWLYDNIEENKNMFIKKKEEIRDLIKNIVQKFDVYNSKQQNLGNIINHLNNIITQCSNKPSDESQNIINRTTKFLNNINSLQEQEKNKPLYEPPVYTLNDIEAEFNEVTQLAQKFFSKLEVEELAKQKAKQEKEKEKEKEKEKEKEKEKNEETNLDANEEQNNEAKNNEEKENSTKNENSANPEE
B2: PfHop (natural protein)
chain: MVNKEEAQRLKELGNKCFQEGKYEEAVKYFSDAITNDPLDHVLYSNLSGAFASLGRFYEALESANKCISIKKDWPKGYIRKGCAEHGLRQLSNAEKTYLEGLKIDPNNKSLQDALSKVRNENMLENAQLIAHLNNIIENDPQLKSYKEENSNYPHELLNTIKSINSNPMNIRIILSTCHPKISEGVEKFFGFKFTGEGNDAEERQRQQREEEERRKKKEEEERKKKEEEEMKKQNRTPEQIQGDEHKLKGNEFYKQKKFDEALKEYEEAIQINPNDIMYHYNKAAVHIEMKNYDKAVETCLYAIENRYNFKAEFIQVAKLYNRLAISYINMKKYDLAIEAYRKSLVEDNNRATRNALKELERRKEKEEKEAYIDPDKAEEHKNKGNEYFKNNDFPNAKKEYDEAIRRNPNDAKLYSNRAAALTKLIEYPSALEDVMKAIELDPTFVKAYSRKGNLHFFMKDYYKALQAYNKGLELDPNNKECLEGYQRCAFKIDEMSKSEKVDEEQFKKSMADPEIQQIISDPQFQIILQKLNENPNSISEYIKDPKIFNGLQKLIAAGILKVR

Columns and labels:
[1] = target: PfHsp70-zLS (linker switch mutant of PfHsp70-z carrying the linker of canonical Hsp70) (Plasmodium falciparum) (UniProt Q8IC01); assay: SPR
[2] = target: PfHsp70-1LS (linker switch mutant of PfHsp70-1 carrying the linker of PfHsp70-z) (Plasmodium falciparum) (UniProt Q8IB24); assay: SPR

Row | Binder | Kd [1] | koff [1] | kon [1] | Kd [2]
1 | B1 | 3.17 nM and 2.79 nM and 1.84 nM | 4.15e-05 s⁻¹ and 4.36e-05 s⁻¹ and 5.32e-05 s⁻¹ | 13100 M⁻¹ s⁻¹ and 23700 M⁻¹ s⁻¹ and 19100 M⁻¹ s⁻¹ | –
2 | B2 | – | – | – | 27.7 nM and 10 nM and 37.6 nM
